Data on 2 variants can be found in paper PMC6768651, “A ubiquitin-like domain controls protein kinase D dimerization and activation by trans-autophosphorylation” (The Journal of Biological Chemistry, 2019).

B1: DKF-1 ULD–C1a (DKF-1^1–151) [C. elegans] / itself (parent)
chain: MDGSQGSTDYGDHVVLRYGGTREMVPLIRHEQMLDMLMERARQIVQGFGNLDTRNMYLFRHEYNSPTLLYPITSASQITSGSILEIILVDRTEAAVIPHVVEPESYMRPTFCDFCGEMLTGLMRQGVKCKNCNGNFHKRCSNAARNNCGAP
B2: DKF-1 ULD (DKF-1^1–94) [C. elegans] / itself (parent)
chain: MDGSQGSTDYGDHVVLRYGGTREMVPLIRHEQMLDMLMERARQIVQGFGNLDTRNMYLFRHEYNSPTLLYPITSASQITSGSILEIILVDRTEA

Holding throughout (assay): SEC-MALS (static light scattering)
Holding throughout (details): with itself

In assay [1] the parent is B1.
Assay [2] covers variants of B1. This is another data set of the same source.
In assay [3] the parent is B2. This is another data set of the same source.
Assay [4] covers variants of B2. This is another data set of the same source.

Turning to MDGSQGSTDYGDHVVLRYGGTREMVPLIRHEQMLDMLMERARQIVQGFGNLDTRNMYLERHEYNSPTLLYPITSASQITSGSILEIILVDRTEAAVIPHVVEPESYMRPTFCDFCGEMLTGLMRQGVKCKNCNGNFHKRCSNAARNNCGAP [chain 1 F59E], the screen value is 1.09 with itself [1] and 18.7 kDa with itself [2].

On to MDGSQGSTDYGDHVVLRYGGTREMVPLIRHEQMLDMLMERARQIVQGFGNLDTRNMYLERHEYNSPTLLYPITSASQITSGSILEIILVDRTEA [chain 1 F59E], for which the screen value with itself [3] turned out to be 1.04; with itself [4], 11.3 kDa.
